Source: publication PMC2995291
Where two headings read alike, the source gives them in different places.

Columns and labels:
[1] = biological target: human ubiquitin with noncleavable N-terminal (His)6 tag (human) (UniProt P0CG48); experiment: ITC
[2] = biological target: human ubiquitin with noncleavable N-terminal (His)6 tag (human) (UniProt P0CG48); experiment: ITC; remark: listed apart in the source

| Kd [1] [µM] | dH (kcal · mol^−1) [1] | stoichiometry N [1] | Kd [2] [µM] | Substance |
| --- | --- | --- | --- | --- |
| 23.8 | 4.5 | 1.01 | 23.6 | human Polι UBM2 (residues 679–707) (domain or fragment) |
| 172 | – | – | – | human Polι UBM2 P692A (residues 674–715) (domain or fragment) |
| – | – | – | 23 | human Polι UBM2 (residues 674–715) (domain or fragment) |
